Test results: patent US20220064282A1 (ZEDA BIOPHARMACEUTICALS, published 2022)
Residue numbers refer to the chain shown, from its start. One block for each binder: values may come before it.

How the values were obtained:
[1] = molecular target: T1, IL-1β-his-bio (human, UniProt P01584 117-269, biotinylated, sites not stated); assay: ELISA, IL-1β-his-bio captured on streptavidin plate
T1 construct: also called biotinylated IL1b-His

[2] = molecular target: T2, IL-1β-hFc (human); assay: competition ELISA, IL-1β-hFc coated, competitor IL1RI(1-332)-his at 0.04 µg/ml, anti-His detection
T2 construct: also called IL1b-TEV-hIgG1Fc

[3] = molecular target: T3, IL1β (antigen used as analyte in Biacore) (UniProt P01584 117-269, limits assumed); assay: SPR (Biacore), antibody captured on Protein A chip, antigen as analyte
T3 construct: also called the antigen

[4] = molecular target: T2, IL-1β-hFc; assay: competition ELISA, IL-1β-hFc coated, competitor IL1RI(1-332)-his, anti-His detection
[5] = molecular target: T4, IL-1β-his (human, UniProt P01584 117-269); assay: BLI (Fortebio Octet Qke), antibody immobilised on AR2G sensor, IL1β-his 1.56-100 nM, 1:1 fit
T4 construct: also called IL1b-His; IL-1β-WT-His

[6] = molecular target: T2, IL-1β-hFc; assay: competition ELISA: IL-1β-hFc coated, antibody titrated, IL1RI (1-332)-his as the blocked receptor (Example 12, method of Example 6.2)
[7] = molecular target: T4, IL-1β-his; assay: ELISA, IL-1β-his coated
[8] = molecular target: T2, IL-1β-hFc; assay: competition ELISA by the method of Example 6.2, competitor IL1RI
[9] = molecular target: T4, IL-1β-his; assay: ELISA, IL-1β-his coated, antibody titrated (Example 9, method of Example 6.1); Mean, SD 0.000; upper right table
[10] = molecular target: T4, IL-1β-his; assay: ELISA, IL-1β-his coated, antibody titrated (Example 9, method of Example 6.1); Mean, SD 0.019; lower left table
[11] = molecular target: T4, IL-1β-his; assay: ELISA on IL-1β-his (Example 11, method of Example 6.1); sample kept at 40 °C for 7 d; Mean, SD 0.001
[12] = molecular target: T4, IL-1β-his; assay: ELISA on IL-1β-his (Example 11, method of Example 6.1); sample kept at 40 °C for 28 d; Mean, SD 0.023
[13] = molecular target: T4, IL-1β-his; assay: ELISA, IL-1β-his coated, antibody titrated (Example 9, method of Example 6.1); Mean, SD 0.000; upper left table
[14] = molecular target: T4, IL-1β-his; assay: ELISA, IL-1β-his coated, antibody titrated (Example 9, method of Example 6.1); Mean, SD 0.002; lower right table

B1: murine antibody KF021ZP4 9D5 (antibody, V domains shown)
VH: DVQLVESGGGLVQPGGSRKLSCAASGFTFSTFGMHWVRQAPEKGLEWVAYISSGSYTTYYADTVRGRFTISRDNPKNTLFLQMTSLRSEDTAMYYCARDDYDVSNYVMDYWGQGTSVTVSS
VL: DIVLTQSPASLAVSLGQRATISCRASESVEYYGTSLMQWYQQKPGQPPKLLIYAASNVESGVPARFTGSGSGTVFSLNIHPVEEDDIAMYFCQQSRKVPSLTFGAGTKLELK
notes: Mouse monoclonal antibody from hybridoma supernatant
EC50 [1]: 36 pM
EC50 [2]: 370 pM

B2: murine antibody KF021ZP4 19E4 (antibody, V domains shown)
VH: B1 VH with T58I, N105Y, V107A
VL: B1 VL with T67S, V74D
notes: as for B1
EC50 [1]: 726 pM
EC50 [2]: 892 pM

Next, values leading:

Kd [3]: 61.6 pM
koff [3]: 0.000104 s⁻¹
kon [3]: 1.69e+06 M⁻¹ s⁻¹
EC50 [1]: 62 pM
EC50 [4]: 516 pM
Kd [5]: 179 pM
koff [5]: 0.000105 s⁻¹
kon [5]: 589000 M⁻¹ s⁻¹
EC50 [2]: 229 pM
IC50 (read off the curve) [6]: ~3000 pM
EC50 [7]: 169 pM
IC50 [8]: 30 pM
B3: Positive control antibody PcAb (antibody, human IgG1, kappa, V domains shown)
VH: QVQLVESGGGVVQPGRSLRLSCAASGFTFSVYGMNWVRQAPGKGLEWVAIIWYDGDNQYYADSVKGRFTISRDNSKNTLYLQMNGLRAEDTAVYYCARDLRTGPFDYWGQGTLVTVSS
VL: EIVLTQSPDFQSVTPKEKVTITCRASQSIGSSLHWYQQKPDQSPKLLIKYASQSFSGVPSRFSGSGSGTDFTLTINSLEAEDAAAYYCHQSSSLPFTFGPGTKVDIKR
notes: also called KF021ZP4 PcAb; KF021ZP4 PCAb

EC50 [9]: 51 pM
EC50 [10]: 74 pM
Kd [5]: 142 pM
EC50 [11]: 76 pM
EC50 [7]: 46 pM
EC50 [12]: 133 pM
EC50 [13]: 51 pM
EC50 [14]: 51 pM
B4: humanized antibody 18H11 H1L1 (antibody, V domains shown)
VH: QVQLVQSGAEVVKPGASVKISCKASGYLFTGYYMHWVKQAPGKGLEWIGFISCYNGDTTYNQKFQGKATFTVDTSTNTAYMEFNSLTSEDTAVYYCSRSDYYGTSDYWGQGTTLTVSS
VL: EIVLTQSPATMSASPGERVTISCRASSSVSYMHWFQQKPGQAPRLWIYTTSTLATGVPARFSGSGSGTDYTLTISRMEPEDAATYYCQQRIIYPPTFGGGTKLEIKR

EC50 [1]: 174 pM
EC50 [2]: 389 pM
B5: murine antibody KF021ZP4 18H11 (antibody, V domains shown)
VH: EVQLQQSGPELVKTGASVKISCKASGYLFTGYYMHWVKQSHGKSLEWIGFISCYNGDTTYNQKFKDKATFTVDTSSNTAYMQFNSLTSEDSAVYYCSRSDYYGTSDYWGQGTTLTVSS
VL: QIVLTQSPAIMSASPGEKVTITCSASSSVSYMHWFQQKPGTSPKLWIYTTSTLASGVPARFSGSGSGTSYSLTISRMEAEDAATYYCQQRIIYPPTFGGGTKLEIK
notes: as for B1
